T1: CD123-Fc recombinant protein (human, UniProt P26951 19-305)
T1 construct: Soluble staining reagent; also called CD123-Fc protein; not shown: Fc part
T1 sequence (looked up): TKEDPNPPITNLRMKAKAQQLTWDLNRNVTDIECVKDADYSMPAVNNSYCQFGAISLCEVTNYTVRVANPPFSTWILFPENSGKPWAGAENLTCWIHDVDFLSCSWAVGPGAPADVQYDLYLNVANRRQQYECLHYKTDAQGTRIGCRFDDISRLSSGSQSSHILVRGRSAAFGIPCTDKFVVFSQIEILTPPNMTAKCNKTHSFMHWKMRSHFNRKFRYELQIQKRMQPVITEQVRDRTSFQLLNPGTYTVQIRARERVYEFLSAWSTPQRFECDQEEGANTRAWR

B1: anti-CD123 scFv-C16 (scFv)
scFv: QSVVTQPPSASGTPGQRVTISCSGSSSNIEGNTVSWYQQFPGAAPKLLIYSNSYRASGVPDRFSGSKSGTSASLAISELQSEDEADYYCSAWDDSLNGPVFGGGTELTVLGGGGSGGGGSGGGGSQVQLQESGGGLVQPGGSLRLSCAASGFTFSSYSMNWVRQAPGKGLEWVSYISSSSSTIYYADSVKGRFTISRDNAKNSLYLQMNSLRAEDTAVYYCARDIYGDWDYYYYGMDVWGQGTTVTVSS
notes: also called C16 scFv
B2: anti-CD123 scFv-C15 (scFv)
scFv: DIQLTQSPSTLSASVGDRVTISCRASQSISSWLAWYQHKPGKAPKLLIYKTSALEDGVPSRFSGSGSGTEFTLTISSLQPDDFATYFCLHYGSYTFGQGTKVDIKGGGGSGGGGSGGGGSEVQLVESGGGLVNPGGSLRLSCEASGFTFSDYYISWIRQAPGKGLEWISYISGSSTYTDFADSVKGRFTISRDNAKNTVFLQMNSLRAEDTAVYYCARDRRGRFDPWGQGTLVTVSS
notes: also called C15 scFv
B3: anti-CD123 scFv-C24 (scFv)
scFv: DIQMTQSPSSLSASVGDRVTITCRASQSISSYLNWYQQKPGKAPKLLIHAASSLQSGVPSKFSGSGSGTDFTLTISSLQPEDFATYYCLQYKTYPYTFGPGTKVEIKGGGGSGGGGSGGGGSQVQLVQSGAEVKKPGSSVKVSCKASGGTFSSYAISWVRQAPGQGLEWMGGIIPIFGTANYAQKFQGRVTITADESTSTAYMELSSLRSEDTAVYYCARDSPSGSTNYYYYYMDVWGKGTTVTVSS
notes: also called C24 scFv
B4: anti-CD123 scFv-C6 (scFv)
scFv: SYELTQPPSVSVSPGQTARIPCSGADLGDQYVSWYQHQPGQSPLLVIYEDDKRPSGIPERFSGSNSGNTATLTISGTQAMDEADYYCQAWDGNAAIFGGGTKLTVLGGGGSGGGGSGGGGSQVQLVQSGGGSVQPGGSLRLSCAASGFTFTRYSMNWVRQAPGKGLEWVSYISSSSSTIYYADSVKGRFTISRDNAKNSLYLQMNSLRDEDTAVYYCARDGYGGNSDYYGMDVWGQGTTVTVSS
notes: also called C6 scFv
B5: anti-CD123 scFv-C13 (scFv)
scFv: DVVMTQTPLSLPVTLGQPASISCRSSQGLVFSDGVTYLNWFQQRPGQSPRRLIYKVSNRDSGVPDRFSGSGSGTDFTLKISRVEAEDVGIYYCMQGTHWPHTFGQGTKLEIKGGGGSGGGGSGGGGSEVQLVESGGGLVKPGGSLRLSCAASGFTFSSYSMNWVRQAPGKGLEWVAFISHDASKKFYADSVKGRFTLSRDNSKNTLYLEMNSLGAEDTALYYCGRDRNWGFSDFWGQGTLVTVSS
notes: also called C13 scFv
B6: anti-CD123 scFv-C1 (scFv)
scFv: QSALTQPASVSGSPGQSITISCTGTSSDIGAYNYVSWYQQHPGKAPKLIIYDVSHRPSGVSNRFSGSKSGNTASLTISGLQSEDEADYYCSSDTNNNTLVFGVGTKLTVLGGGGSGGGGSGGGGSEVHLVESGGGVVQPGRSLRLSCAASGFTFSSYGMHWVRQAPGKGLEWVAVIWYDGSNKYYADSVKGRFTISRDNSKNTLYLQMNSLRAEDTAVYYCARDRDGFFLPMYYFDYWGQGTLVTVSS
notes: also called C1 scFv
B7: anti-CD123 scFv-C23 (scFv)
scFv: DILMTQSPSSLSASVGDRVTITCQASQDISNYLNWYQQKPGKAPKLLIYDASNLETGVPSRFSGSGSGTGFSFTISSLQPEDFATYYCQQYGNLPLTFGGGTKLEIKGGGGSGGGGSGGGGSQVQLVQSGAEVKKPGASVKVSCKASGYTFTSYGISWVRQAPGQGLEWMGWISAYNGNTNYAQKLQGRVTMTTDTSTSTAYMELRSLRSDDTAVYYCARDRIAAAEVYYYYGMDVWGQGTTVTVSS
notes: also called C23 scFv
B8: anti-CD123 scFv-C4 (scFv)
scFv: QSALTQPPSASGTPGQRVTISCSGSSSNIGSNYVNWYQQLPGTAPKLLIYRNNQRPSGVPDRFSGSKSGTSASLAISGLRSEDEADYYCAAWDDSLSGHGVFGTGTELTVLGGGGSGGGGSGGGGSQVQLVQSGPEVKKPGASVKVSCKASGYDFIRYYMNWVRQAPGQGPEWMGAIDPSDGDTTYGQKFQGRVTLTRDTFTSTVYMELSSLRSEDTAVYYCARDWELTNSYGLDVWGQGTTVTVSS
notes: also called C4 scFv
B9: anti-CD123 scFv-C19 (scFv)
scFv: DIRMTQSPSSLSASVGDRVTITCRASQDIRHDLGWYQQKPGKAPSLLMYATSTLQSGVPSRFSGSGSGTHFTLTISSLKPEDSATYYCLQDGDYPLTFGGGTKLEIKGGGGSGGGGSGGGGSQVQLVQSGGGVVQPGRSLRLSCAASGFTFSSYGMHWVRQAPGKGLEWVAVISYDGSNKYYADSVKGRFTISRDNSKNTLYLQMNSLRAEDTAVYYCAKDPSLIQYYYYGMDVWGQGTMVTVSS
notes: also called C19 scFv
B10: anti-CD123 scFv-C10 (scFv)
scFv: SYELTQPPSVSVAPGKTARITCGGNNIGSKSVHWYQQKPGQAPVLVVYDDSDRPSGIPERFSGSNSGNTATLTISRVEAGDEADYYCQVWDSSSDHWVFGGGTKLTVLGGGGSGGGGSGGGGSQVQLVQSGAEVKKPGSSVKVSCKASGGTFSSYAISWVRQAPGQGLEWMGGIIPIFGTANYAQKFQGRVTITADESTSTAYMELSSLRSEDTAVYYCAREKWGYYGDYYYGMDVWGQGTTVTVSS
notes: also called C10 scFv
B11: anti-CD123 scFv-C21 (scFv)
scFv: QSVLTQPPSASGTPGQRVTISCSGSSSNVGGNPVYWYRQVPTAAPKLLVYGHNQRPPRDPDRFSGSKSGTSASLAISGLRSEDEADYYCAAWDDSLSGWVFGGGTELTVLGGGGSGGGGSGGGGSEVQLVESGGGLVQPGRSLRLSCAASGFTFDDYAMHWVRQAPGKGLEWVSGISWNSGSIGYADSVKGRFTISRDNAKNSLYLQMNSLRAEDTALYYCAKGRYVDIVATINDAFDIWGQGTMVTVSS
notes: also called C21 scFv
B12: anti-CD123 scFv-C9 (scFv)
scFv: QSVLTQPPSASGTPGQRVTISCSGSNSNIENNYVYWYQHLPGTAPKRLIYQNNQRPSGVPDRFSGSKSGTSASLAISGLRSEDEADYYCSAWDDSLSAWVFGGGTELTVLGGGGSGGGGSGGGGSEVHLVESGGGLVQPGRSLRLSCTASGFTFGDYAMNWVRQAPGKGLEWVGFIRSKASGGTTDYAASVKGRFTISRDDSKSIAYLQMNSLKTEDTAVYYCTRALRGYSYGLFDYWGQGTLVTVSS
notes: also called C9 scFv
B13: anti-CD123 scFv-C11 (scFv)
scFv: QSVVTQPPSASGTPGQRVTISCSGSSSNIGSNYVYWYQQLPGTAPKLLIYRNNQRPSGVPDRFSGSKSGTSASLAISGLRSEDEADYYCAAWDDSLSGYVFGTGTKLTVLGGGGSGGGGSGGGGSEVQLVESGGGLVQPGRSLRLSCTASGFTFGDYAMSWVRQAPGKGLEWVGFIRSKAYGGTTEYAASVKGRFTISRDDSKSIAYLQMNSLKTEDTAVYYCTRDIGYYGSGSYSPFDYWGQGTLVTVSS
notes: also called C11 scFv; C11 CAR
B14: anti-CD123 scFv-C29 (scFv)
scFv: QPVLTQPPSASGTPGQRVTISCSGSSSNIGSNYVYWYQQLPGTAPKLLIYRNNQRPSGVPDRFSGSKSGTSASLAISGLRSEDEADYYCAAWDDSLSGYVFGTGTKVTVLGGGGSGGGGSGGGGSEVHLVESGGGLVQPGRSLRLSCTASGFTFGDYAMSWVRQAPGKGLEWVGFIRSKAYGGTTEYAASVKGRFTISRDDSKSIAYLQMNSLKTEDTAVYYCTRDIGYYGSGSYSPFDYWGQGTLVTVSS
notes: also called C29 scFv
B15: anti-CD123 scFv-C5 (scFv)
scFv: NFMLTQPHSVSESPGKTVTLSCTRSSGSIAGSYVQWYQQRPGSSPTTVIFQDNQRPSGVPDRFSGSIDKSSNSASLTISGLKTEDEADYYCQSYDSNNQVFGGGTKLTVLGGGGSGGGGSGGGGSEVHLVESGGGVVRPGGSLRLSCAASGFTFGDYGMSWVRQAPGKGLEWVSGINWNGGRTGYADSVKGRFTISRDNAKNSLYLQMNSLRAEDTALYYCARARGSGSYFGYMDVWGKGTTVTVSS
notes: also called C5 scFv; C5 CAR
B16: anti-CD123 scFv-C2 (scFv)
scFv: QSVVTQPPSVSAAPGQKVTISCSGSSSNIGNNYVSWYQQFPGTAPKLLIYDNNKRPSGIPDRFSGSKSGTSGTLGITGLQTGDEADYYCVTWDTSLSAGVFGGGTKLTVLGGGGSGGGGSGGGGSQITLKESGGGLVKPGGSLRLSCAASGFTFSNAWMSWVRQAPGKGLEWVGRIKSKTDGGTTDYAAPVKGRFTISRDDSKNTLYLQMNSLKTEDTAVYYCTTDPHGYYYGMDVWGQGTTVTVSS
notes: also called C2 scFv
B17: anti-CD123 scFv-C14 (scFv)
scFv: DIRMTQSPSSLSASVGDRVTITCQASQDITNYLNWYHQKPGKAPKLLIYDASNLETGVPSRFSGGGSGTDFTFTISSLQSEDIGTYYCQQYDDLPLTFGGGTKVEIKGGGGSGGGGSGGGGSQVQLQESGPGLVKPSETLSLTCTVSGGSISSSSHYWGWIRQPPGKGLEWIGSIYYSGSTYYNPSLKSRVTISVDTSKNQFSLKLSSVTAADTAVYYCARRVWVWPTYGMDVWGQGTTVTVSS
notes: also called C14 scFv
B18: anti-CD123 scFv-C3 (scFv)
scFv: AIQMTQSPSSLSASVGDRVTITCRASQGIGTYLAWFQQKPGKAPKSLIYAASNLQSGVPSKFSGSGSGTDFTLTISNLQPEDFATYYCQQYKGYPLTFGGGTKLEIKGGGGSGGGGSGGGGSQVQLVQSGAEVKKPGSSVKVSCKASGGTFSSYAISWVRQAPGQGLEWMGGIIPIFGTANYAQKFQGRVTITADESTSTAYMELSSLRSEDTAVYYCARDSGWFGPRYYFDYWGQGTLVTVSS
notes: also called C3 scFv
B19: anti-CD123 scFv-C18 (scFv)
scFv: QSALTQPASVSGSPGQSITISCTGTSSDVGGYNYVSWYQQHPGKAPKLMIYDVSNRPSGVSNRFSGSKSGNTASLTISGLQAEDEADYYCSSYTSSSTLFVFGTGTELTVLGGGGSGGGGSGGGGSQVQLQESGPGLVKPSQTLSLTCTVSGGSISSGDYYWSWIRQSPGKGLEWIGYIHSTGTTYYNPSLKSRLTISLDTSKNQFSLKLNSVTAADTAVYYCARGGVGTIFNYWGQGTLVTVSS
notes: also called C18 scFv

The test concerns the target T1, CD123-Fc recombinant protein. Nature of the test: FACS staining of CAR-T cells with CD123-Fc recombinant protein (FIG. 28).
Turning to B1, the binding result was “binds”. For B2, the binding result is on record as “binds”. The same measure for B3: “binds”; for B4: “binds”; for B5: “binds”.

With B6, the binding result is “binds”.

For the molecule B7, the binding result is given as “binds”.

Consider B8, for which the binding result is reported as “binds”. With B9 the entry was “binds”; with B10, “binds”. The same measure for B11: “binds”; for B12: “binds”; for B13: “binds”. With B14 the entry was “binds”. As for B15, the binding result is “binds”. With B16 the entry was “binds”; with B17, “binds”.

On to B18, for which the binding result is “binds”.

With B19, the binding result is “binds”.

(Values after US20250144213A1 (UTC THERAPEUTICS SHANGHAI, published 2025).)
